{"source": "patent US20120183545A1", "about": "(Merck KGaA, published 2012)", "molecules": {"B1": {"name": "human CD20 antigen on Daudi lymphoma cells (other, UniProt P11836 1-297, looked up)", "chain": "MTTPRNSVNGTFPAEPMKGPIAMQSGPKPLFRRMSSLVGPTQSFFMRESKTLGAVQIMNGLFHIALGGLLMIPAGIYAPICVTVWYPLWGGIMYIISGSLLAATEKNSRKCLVKGKMIMNSLSLFAAISGMILSIMDILNIKISHFLKMESLNFIRAHTPYINIYNCEPANPSEKNSPSTQYCYSIQSLFLGILSVMLIFAFFQELVIAGIVENEWKRTCSRPKSNIVLLSAEEKKEQTIEIKEEVVGLTETSSQPKNEEDIEIIPIQEEEEEETETNFPEPPQDQESSPIENDSSP", "notes": "whole, on cells; also called Bp35"}, "B2": {"name": "Leu16VhY/VkZ (anti-CD20 PC1) (antibody, IgG1, V domains shown)", "VH": "EVQLQQSGAELKKPGASVKVSCKASGYTFTSYNMHWVKQTPGQGLEWIGAIYPGNGDTSYNQKFKGKTTLTADKSSSTAYMELSSLRSEDTAVYYCARSNYYGSSYWFFDVWGTGTTVTVSS", "VL": "DIVLTQSPAIITASPGEKVTMTCRASSSVNYMDWYQKKPGSSPKPWIYATSNLASGVPSRFSGSGSGTTYSMTISSLEAEDAATYYCQQWSFNPPTFGGGTKLEIK", "notes": "Chimeric IgG1/kappa antibody; also called DILeu16; DI-Leu16 antibody; not shown: human kappa light chain constant region"}}, "key": {"[1]": {"molecular_target": "T1, human CD20 antigen on Daudi lymphoma cells (human) (UniProt P11836)", "T1 sequence (looked up)": "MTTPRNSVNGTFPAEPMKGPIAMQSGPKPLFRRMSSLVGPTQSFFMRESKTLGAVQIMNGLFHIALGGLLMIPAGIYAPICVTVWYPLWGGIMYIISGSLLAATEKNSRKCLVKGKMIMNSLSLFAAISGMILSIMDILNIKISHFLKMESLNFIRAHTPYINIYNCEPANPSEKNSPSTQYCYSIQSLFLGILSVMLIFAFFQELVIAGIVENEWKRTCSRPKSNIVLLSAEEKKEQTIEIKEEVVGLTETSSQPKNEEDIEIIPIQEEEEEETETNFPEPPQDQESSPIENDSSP", "assay": "flow cytometry on Daudi cells; antibody at 5 g/ml as printed"}, "[2]": {"molecular_target": "T1, human CD20 antigen on Daudi lymphoma cells (human)", "assay": "flow cytometry on Daudi cells; antibody at 10 g/ml as printed"}, "[3]": {"molecular_target": "T1, human CD20 antigen on Daudi lymphoma cells (human)", "assay": "flow cytometry on Daudi cells; antibody at 2.5 g/ml as printed"}, "[4]": {"molecular_target": "T1, human CD20 antigen on Daudi lymphoma cells (human)", "assay": "flow cytometry on Daudi cells; antibody at 1.25 g/ml as printed"}, "[5]": {"molecular_target": "T1, human CD20 antigen on Daudi lymphoma cells (human)", "assay": "flow cytometry on Daudi cells; antibody at 0.078 g/ml as printed"}, "[6]": {"molecular_target": "T1, human CD20 antigen on Daudi lymphoma cells (human)", "assay": "flow cytometry on Daudi cells; antibody at 0.156 g/ml as printed"}, "[7]": {"molecular_target": "T1, human CD20 antigen on Daudi lymphoma cells (human)", "assay": "flow cytometry on Daudi cells; antibody at 0.313 g/ml as printed"}, "[8]": {"molecular_target": "T1, human CD20 antigen on Daudi lymphoma cells (human)", "assay": "flow cytometry on Daudi cells; antibody at 0.625 g/ml as printed"}, "IL-2 Rβ on TF-1β cells": {"molecular_target": "IL-2 Rβ on TF-1β cells (UniProt P14784)", "sequence (P14784 27-551)": "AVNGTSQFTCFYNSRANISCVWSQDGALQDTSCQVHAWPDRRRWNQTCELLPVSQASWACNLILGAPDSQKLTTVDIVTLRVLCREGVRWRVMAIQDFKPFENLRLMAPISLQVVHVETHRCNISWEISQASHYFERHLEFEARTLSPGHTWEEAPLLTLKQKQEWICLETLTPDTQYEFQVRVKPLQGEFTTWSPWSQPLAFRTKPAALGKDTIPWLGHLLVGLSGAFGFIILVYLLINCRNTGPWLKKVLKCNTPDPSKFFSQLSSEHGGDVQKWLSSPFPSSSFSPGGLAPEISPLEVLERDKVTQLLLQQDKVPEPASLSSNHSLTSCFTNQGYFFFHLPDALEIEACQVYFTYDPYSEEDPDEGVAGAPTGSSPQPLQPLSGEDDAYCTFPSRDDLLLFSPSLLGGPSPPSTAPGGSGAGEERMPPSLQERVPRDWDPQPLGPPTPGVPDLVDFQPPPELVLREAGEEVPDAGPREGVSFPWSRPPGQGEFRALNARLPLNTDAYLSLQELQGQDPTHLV", "assay": "cell-based or functional assay"}, "[9]": {"molecular_target": "high affinity IL-2R on a mouse cell line (CTLL-2) (mouse) (UniProt P01590)", "sequence (P01590 22-268, chain 1 of 3)": "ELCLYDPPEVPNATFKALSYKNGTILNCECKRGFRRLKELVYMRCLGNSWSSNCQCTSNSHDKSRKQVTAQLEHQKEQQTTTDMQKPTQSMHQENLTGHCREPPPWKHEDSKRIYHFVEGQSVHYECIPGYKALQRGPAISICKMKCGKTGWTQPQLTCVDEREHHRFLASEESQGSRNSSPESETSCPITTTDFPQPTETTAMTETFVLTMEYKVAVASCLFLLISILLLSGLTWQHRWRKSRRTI", "sequence (P16297 27-539, chain 2 of 3, further chain)": "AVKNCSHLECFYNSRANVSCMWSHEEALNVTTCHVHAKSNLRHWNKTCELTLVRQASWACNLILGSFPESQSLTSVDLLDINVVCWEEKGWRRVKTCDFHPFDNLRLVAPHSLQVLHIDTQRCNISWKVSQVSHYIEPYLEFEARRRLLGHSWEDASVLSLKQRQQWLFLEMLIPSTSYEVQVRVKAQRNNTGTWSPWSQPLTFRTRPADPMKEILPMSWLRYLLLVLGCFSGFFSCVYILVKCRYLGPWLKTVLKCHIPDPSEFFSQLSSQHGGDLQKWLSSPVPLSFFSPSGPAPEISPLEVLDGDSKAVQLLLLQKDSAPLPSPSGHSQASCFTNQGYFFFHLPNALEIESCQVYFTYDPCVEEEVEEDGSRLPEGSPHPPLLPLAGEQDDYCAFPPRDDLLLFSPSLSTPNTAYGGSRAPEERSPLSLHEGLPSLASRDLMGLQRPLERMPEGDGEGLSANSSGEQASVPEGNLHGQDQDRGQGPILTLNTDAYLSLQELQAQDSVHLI", "sequence (P34902 23-369, chain 3 of 3, further chain)": "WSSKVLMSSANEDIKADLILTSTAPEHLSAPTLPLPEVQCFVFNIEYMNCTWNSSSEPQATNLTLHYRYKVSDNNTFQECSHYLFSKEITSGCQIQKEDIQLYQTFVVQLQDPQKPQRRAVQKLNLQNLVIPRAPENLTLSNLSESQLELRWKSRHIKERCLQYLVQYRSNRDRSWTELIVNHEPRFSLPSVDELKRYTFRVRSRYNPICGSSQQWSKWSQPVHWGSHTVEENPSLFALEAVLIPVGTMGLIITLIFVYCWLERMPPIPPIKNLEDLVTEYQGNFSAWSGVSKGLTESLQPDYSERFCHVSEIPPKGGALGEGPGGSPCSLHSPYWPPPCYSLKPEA", "assay": "cell-based or functional assay"}, "[10]": {"molecular_target": "T2, Leu16VhY/VkZ-IL2 (anti-CD20 PC2) (human, UniProt P60568 21-153)", "T2 construct": "Antibody-IL2 fusion (immunocytokine), glycosylated; also called AbVhY/VkZ-IL2; Ab(VhY/VkZ)-IL2; not shown: human kappa light chain constant region", "T2 sequence (P60568 21-153 limits assumed)": "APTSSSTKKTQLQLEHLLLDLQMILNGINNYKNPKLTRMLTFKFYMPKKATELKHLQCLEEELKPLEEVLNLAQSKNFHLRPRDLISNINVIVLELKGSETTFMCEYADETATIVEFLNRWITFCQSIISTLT", "assay": "flow cytometry on Daudi cells", "protocol": "(§1) Approximately 10⁶ Daudi cells were used with various concentrations of antibody or antibody-IL2 fusion protein in a 100 μl volume, for each sample tested."}, "[11]": {"molecular_target": "B1", "assay": "flow cytometry on Daudi cells, FIG. 6 Panel A", "protocol": "FIG. 6 illustrates the anti-CD20 binding activity of CD20-binding polypeptide compositions and immunocytokines (ICs). Human Daudi lymphoma cells were incubated with varying concentrations of polypeptide compositions and ICs and relative binding to the cells was assessed by flow cytometry, as described in Example 2.\nas §1"}}, "data": [{"molecule": "2B8-IL2 fusion protein", "values": [{"measurement": "mean fluorescence intensity", "setting": "[1]", "value": 720}, {"measurement": "mean fluorescence intensity", "setting": "[2]", "value": 857}, {"measurement": "mean fluorescence intensity", "setting": "[3]", "value": 513}, {"measurement": "mean fluorescence intensity", "setting": "[4]", "value": 369}, {"measurement": "mean fluorescence intensity", "setting": "[5]", "value": 52.1}, {"measurement": "mean fluorescence intensity", "setting": "[6]", "value": 85.3}, {"measurement": "mean fluorescence intensity", "setting": "[7]", "value": 147}, {"measurement": "mean fluorescence intensity", "setting": "[8]", "value": 229}]}, {"molecule": "KS-IL2, anti-EpCAM antibody fused to human IL-2 at the C-terminus of the antibody heavy chains (from UniProt P60568 21-153)", "values": [{"measurement": "TF-1β ED50", "setting": "IL-2 Rβ on TF-1β cells", "value": 0.51, "unit": "ng/mL"}, {"measurement": "CTLL-2 ED50", "setting": "[9]", "value": 1.71, "unit": "ng/mL"}]}, {"molecule": "human rIL-2 (from UniProt P60568 21-153) (ligand)", "values": [{"measurement": "CTLL-2 ED50", "setting": "[9]", "value": 0.65, "unit": "ng/mL"}]}, {"molecule": "B1", "values": [{"measurement": "binding result", "setting": "[10]", "value": "binds"}]}, {"molecule": "B2", "values": [{"measurement": "binding result", "setting": "[11]", "value": "binds"}]}]}
